In paper PMC12562681, “Targeting a Tau Kinase Cdk5, Cyclin-Dependent Kinase: A Blood-Based Diagnostic Marker and Therapeutic Earmark for Alzheimer’s Disease” (Biomolecules, 2025):
pKd: −log10 of the molar value.

Assays:
[1] = target: recombinant human Cdk5 (Cyclin-Dependent Kinase 5) (human) (UniProt Q00535)
[2] = target: recombinant human Cdk5 (Cyclin-Dependent Kinase 5) (human) (UniProt Q00535); assay: SPR; recombinant Cdk5 immobilised on a Ni-NTA sensor chip (NiCl2 solution, then the protein); peptide YCWS passed over at 0.4, 0.6 and 1 µM; KA and KD calculated with BIA evaluation 3.0 software

In the case of peptide YCWS, the cell viability (MTT) of differentiated SH-SY5Y cells treated with 20 µM aggregated Aβ25–35 together with YCWS at 2, 5, 10, 15 and 20 µM (77.65% without the peptide) [1] was 98.5% and the pKd [2] was 8.40.
